In doi:10.1101/2023.10.03.560691:
Ends that are not written are not given here.

Experiments:
[1] = molecular target: Phage λ Orf63, 6xHis-Flag affinity tagged (phage λ); test: SEC-MALS
[2] = molecular target: Phage λ Orf63, 6xHis-Flag affinity tagged (phage λ); test: BLI

| Molecule | stoichiometry N [1] | Kd [2] [µM] |
| --- | --- | --- |
| Phage λ Orf63, 6xHis-Flag affinity tagged (natural protein) | 2 | – |
| GGLVPRGSGDTKELILAIARKVKEMIKNS (designed binder, also: fused to 6xHis-tagged ubiquitin) [6xHis-tagged ubiquitin fusion protein with the designed Orf63 binding peptide] | – | > 20 |
